# Source: IntAct's records for PubMed 24879834
# B1: TBC1 domain family member 1 (Homo sapiens), Q86TI0 (parent)
# chain: MEPITFTARKHLLSNEVSVDFGLQLVGSLPVHSLTTMPMLPWVVAEVRRLSRQSTRKEPVTKQVRLCVSPSGLRCEPEPGRSQQWDPLIYSSIFECKPQRVHKLIHNSHDPSYFACLIKEDAVHRQSICYVFKADDQTKVPEIISSIRQAGKIARQEELHCPSEFDDTFSKKFEVLFCGRVTVAHKKAPPALIDECIEKFNHVSGSRGSESPRPNPPHAAPTGSQEPVRRPMRKSFSQPGLRSLAFRKELQDGGLRSSGFFSSFEESDIENHLISGHNIVQPTDIEENRTMLFTIGQSEVYLISPDTKKIALEKNFKEISFCSQGIRHVDHFGFICRESSGGGGFHFVCYVFQCTNEALVDEIMMTLKQAFTVAAVQQTAKAPAQLCEGCPLQSLHKLCERIEGMNSSKTKLELQKHLTTLTNQEQATIFEEVQKLRPRNEQRENELIISFLRCLYEEKQKEHIHIGEMKQTSQMAAENIGSELPPSATRFRLDMLKNKAKRSLTESLESILSRGNKARGLQEHSISVDLDSSLSSTLSNTSKEPSVCEKEALPISESSFKLLGSSEDLSSDSESHLPEEPAPLSPQQAFRRRANTLSHFPIECQEPPQPARGSPGVSQRKLMRYHSVSTETPHERKDFESKANHLGDSGGTPVKTRRHSWRQQIFLRVATPQKACDSSSRYEDYSELGELPPRSPLEPVCEDGPFGPPPEEKKRTSRELRELWQKAILQQILLLRMEKENQKLQASENDLLNKRLKLDYEEITPCLKEVTTVWEKMLSTPGRSKIKFDMEKMHSAVGQGVPRHHRGEIWKFLAEQFHLKHQFPSKQQPKDVPYKELLKQLTSQQHAILIDLGRTFPTHPYFSAQLGAGQLSLYNILKAYSLLDQEVGYCQGLSFVAGILLLHMSEEEAFKMLKFLMFDMGLRKQYRPDMIILQIQMYQLSRLLHDYHRDLYNHLEEHEIGPSLYAAPWFLTMFASQFPLGFVARVFDMIFLQGTEVIFKVALSLLGSHKPLILQHENLETIVDFIKSTLPNLGLVQMEKTINQVFEMDIAKQLQAYEVEYHVLQEELIDSSPLSDNQRMDKLEKTNSSLRKQNLDLLEQLQVANGRIQSLEATIEKLLSSESKLKQAMLTLELERSALLQTVEELRRRSAEPSDREPECTQPEPTGD
# partner: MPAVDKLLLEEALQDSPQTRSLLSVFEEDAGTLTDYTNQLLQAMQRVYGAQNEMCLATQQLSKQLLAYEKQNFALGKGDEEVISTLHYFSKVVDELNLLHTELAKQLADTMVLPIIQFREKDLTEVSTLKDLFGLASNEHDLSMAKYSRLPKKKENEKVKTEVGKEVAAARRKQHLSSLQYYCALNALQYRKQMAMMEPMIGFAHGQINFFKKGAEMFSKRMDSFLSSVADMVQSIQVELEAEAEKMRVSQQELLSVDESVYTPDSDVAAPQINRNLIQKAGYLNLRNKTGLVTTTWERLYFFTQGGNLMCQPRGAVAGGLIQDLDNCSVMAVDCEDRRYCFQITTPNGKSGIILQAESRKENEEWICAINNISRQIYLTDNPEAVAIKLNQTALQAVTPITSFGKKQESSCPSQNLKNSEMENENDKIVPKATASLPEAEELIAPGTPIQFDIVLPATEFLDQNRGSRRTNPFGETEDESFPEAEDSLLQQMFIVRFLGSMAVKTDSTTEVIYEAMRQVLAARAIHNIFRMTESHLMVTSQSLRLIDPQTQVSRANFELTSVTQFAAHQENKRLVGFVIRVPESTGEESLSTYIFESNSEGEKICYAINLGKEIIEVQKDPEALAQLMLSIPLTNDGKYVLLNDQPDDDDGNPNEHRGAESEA
# Variants of: B1
# Details: with dp13b_human APPL2, Q8NEU8
row,Variant,effect of a mutation on the interaction
1,S235A,disrupting interaction strength
2,S237A,with no effect
